# Results: patent US20190136256
# T1: Myc tagged AN (AN-Myc)
# T1 chain: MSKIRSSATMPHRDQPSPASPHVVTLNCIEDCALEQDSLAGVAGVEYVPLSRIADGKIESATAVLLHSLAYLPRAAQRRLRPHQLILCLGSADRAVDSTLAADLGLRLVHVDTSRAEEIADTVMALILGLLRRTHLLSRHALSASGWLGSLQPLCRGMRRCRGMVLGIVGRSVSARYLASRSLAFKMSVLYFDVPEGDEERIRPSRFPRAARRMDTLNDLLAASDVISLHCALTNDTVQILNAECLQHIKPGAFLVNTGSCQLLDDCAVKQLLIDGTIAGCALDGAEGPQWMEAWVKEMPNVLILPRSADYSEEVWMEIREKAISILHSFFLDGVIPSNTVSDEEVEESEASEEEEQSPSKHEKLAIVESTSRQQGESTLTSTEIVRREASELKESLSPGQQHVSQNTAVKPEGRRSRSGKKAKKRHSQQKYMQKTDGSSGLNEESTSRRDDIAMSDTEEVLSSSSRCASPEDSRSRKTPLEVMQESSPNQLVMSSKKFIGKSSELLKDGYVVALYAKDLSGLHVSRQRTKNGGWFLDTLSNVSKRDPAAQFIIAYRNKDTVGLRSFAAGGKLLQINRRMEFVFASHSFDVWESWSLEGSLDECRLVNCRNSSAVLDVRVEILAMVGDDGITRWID
# B1: HA-tagged TDP1 (HA-TDP1) (protein)
# chain: MAHSQVAYLIPLKADLKEDNSSPRITLSEGPNIIGRGNVSIVDKRLSRKHITIIVSTSGSASLSVDGTNPVVIRSSGDGERKKVKPSEEVSVCNDDLIELIPGHHFFKLVLLNGRAAKKARKAEDDVEAIRRFCPPNEKLPSTFRLLSVDALPDWANTSCVSINDVIEGDVVAAILSNYMVDIDWLMSACPKLANIPQVMVIHGEGDGRQEYIQRKKPANWILHKPRLPISFGTHHSKAIFLVYPRGVRVVVHTANLIHVDWNNKSQGLWMQDFPWKDDDKDPPKGCGFEGDLIDYLNVLKWPEFTANLPGRGNVKINAAFFKKFDYSDATVRLIASVPGYHTGFNLNKWGHMKLRTILQECIFDREFRRSPLIYQFSSLGSLDEKWLAEFGNSLSSGITEDKTPLGPGDSLIIWPTVEDVRCSLEGYAAGNAIPSPLKNVEKPFLKKYWARWKADHSARGRAMPHIKTFTRYNDQKIAWFLLTSSNLSKAAWGALQKNNSQLMIRSYELGVLFLPSPIKTQGCVFSCTESNPSVMKAKQETKDEVEKRSKLVTMTWQGDRDLPEIISLPVPYQLPPKPYSPEDVPWSWDRGYSKKDVYGQVWPR
# Target: T1, Myc tagged AN (AN-Myc)
protein,measurement,value
B1,µChIP-qPCR: association of AN with MYB46 promoter,the chromatin association of AN with MYB46 promoter was significantly increased (p<0.05) in vivo when co-expressed with TDP1
